Results as given in patent US20020099177A1 (Human Genome Sciences, published 2002).

Target: T1, IL-1 receptor type I (Flag-IL-1RI) (human, UniProt P14778 18-569)
T1 construct: not shown: Flag tag from pCMV-1-Flag expression vector
T1 sequence (looked up): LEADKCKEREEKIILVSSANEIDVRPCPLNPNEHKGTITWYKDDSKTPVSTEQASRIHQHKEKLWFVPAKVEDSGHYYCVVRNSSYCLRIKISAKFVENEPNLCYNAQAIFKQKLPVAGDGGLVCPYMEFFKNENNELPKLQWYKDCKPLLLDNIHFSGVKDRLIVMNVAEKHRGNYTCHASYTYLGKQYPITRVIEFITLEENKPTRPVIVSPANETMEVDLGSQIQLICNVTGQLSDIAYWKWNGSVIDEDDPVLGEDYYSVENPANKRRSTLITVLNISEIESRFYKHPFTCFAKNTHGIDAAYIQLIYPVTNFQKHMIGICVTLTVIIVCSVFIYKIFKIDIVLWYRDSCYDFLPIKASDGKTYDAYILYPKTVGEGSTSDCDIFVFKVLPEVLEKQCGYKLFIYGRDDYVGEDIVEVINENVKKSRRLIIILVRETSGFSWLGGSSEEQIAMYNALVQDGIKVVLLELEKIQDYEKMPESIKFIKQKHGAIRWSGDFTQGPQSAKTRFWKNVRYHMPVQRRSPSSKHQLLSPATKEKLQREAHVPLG
Experiment: coimmunoprecipitation from transfected 293/293T cell lysates
Procedure: The total amount of DNA was kept constant. 24-36 hours after transfection, cells were lysed in 0.5 ml buffer (1% NP40, 150 mM NaCl, 50 mM Tris, 1 mM EDTA and protease inhibitors cocktail). Cell lysates were adjusted to 0.7 M NaCl and the indicated antibodies were added for 1 to 4 hours. Immune complexes were precipitated by the addition of protein-G-Sepharose (Sigma). After extensive washing, the Sepharose heads were boiled in sample buffer and the eluted proteins fractionated by SDS-PAGE. Subsequent protein immunoblotting was performed as described (Chinnaiyan, A., et al., Cell 81:505-12 (1995)).

- binding result: no binding
B1: IRAK-2 (97-590) (enzyme)
chain: PEIRCPIPAFPDSVKPEKPLAASVRKAEDEQEEGQPVRMATFPGPGSSPARAHQPAFLQPPEEDAPHSLRSDLPTSSDSKDFSTSIPKQEKLLSLAGDSLFWSEADVVQATDDFNQNRKISQGTFADVYRGHRHGKPFVFKKLRETACSSPGSIERFFQAELQICLRCCHPNVLPVLGFCAARQFHSFIYPYMANGSLQDRLQGQGGSEPLPWPQRVSICSGLLCAVEYLHGLEIIHSNVKSSNVLLDQNLTPKLAHPMAHLCPVNKRSKYTMMKTHLLRTSAAYLPEDFIRVGQLTKRVDIFSCGIVLAEVLTGIPAMDNNRSPVYLKDLLLSEIPSSTASLCSRKTGVENVMAKEICQKYLEKGAGRLPEDCAEALATAACLCLRRRNTSLQEVCGSVAAVEERLRGRETLLPWSGLSEGTGSSSNTPEETDDVDNSSLDASSSMSVAPWAGAATPLLPTENGEGRLRVIVGREADSSSEACVGLEPPQDVT
notes: Truncated IRAK-2 lacking the N-terminal domain (DD); also called IRAK-2 (97-590)-MyC; mutant version of IRAK-2 lacking the first 96 amino acid residues; not shown: C-terminal Myc(-His) tag from pCDNA3-MyC-His vector
